Measured values as given in publication PMC6576074, “NF‐YB1‐YC12‐bHLH144 complex directly activates Wx to regulate grain quality in rice (Oryza sativa L.)”.
One block for each molecule: values may come before it.

What was measured:
LGF2‐pBT = experiment: two-hybrid; bacterial two-hybrid (BacterioMatch II) in E. coli XL1‐Blue MRF′; NF‐YB1‐pTRG and NF‐YCs‐pBT; growth on M9/+Cm/+Ter/+3‐AT/+Strep/‐HIS against M9/+Cm/+Ter; intensity = ratio (%) of colony numbers
[1] = biological target: HIS‐NF‐YB1 (rice (Oryza sativa L.)) (UniProt Q6Z348)
HIS-NF-YB1 = biological target: T1, HIS-NF-YB1 (Oryza sativa L. (rice; cultivar not …, UniProt Q6Z348 1-186); experiment: EMSA; EMSA: Beyotime EMSA/Gel-shift binding buffer (composition and pH not given), 10 uL, 2 nmol biotin probe, 5 nmol protein, 20 min preincubation + 20 min at 25 C; details: protein: recombinant; tags: N-terminal His (pET28a); label: biotin; blunt
T1 sequence: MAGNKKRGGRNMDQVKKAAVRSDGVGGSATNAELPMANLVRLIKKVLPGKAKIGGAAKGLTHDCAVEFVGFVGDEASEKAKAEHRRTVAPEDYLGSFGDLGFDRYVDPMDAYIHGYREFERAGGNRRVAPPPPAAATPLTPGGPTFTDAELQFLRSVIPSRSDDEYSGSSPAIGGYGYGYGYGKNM

[2] = biological target: GST‐NF‐YC12 (rice (Oryza sativa L.))
[3] = biological target: NF‐YC12‐pBT (rice (Oryza sativa L.)); experiment: two-hybrid; bacterial two-hybrid (BacterioMatch II) in E. coli XL1‐Blue MRF′; NF‐YB1‐pTRG and NF‐YCs‐pBT; growth on M9/+Cm/+Ter/+3‐AT/+Strep/‐HIS against M9/+Cm/+Ter; intensity = ratio (%) of colony numbers

interaction intensity (ratio of colony numbers on selective and non-selective medium) (LGF2‐pBT): 33.8%
Molecule: Gal11‐pTRG

half-life of HIS‐NF‐YB1 in a cell-free degradation assay with GST‐NF‐YC12 and HIS‐bHLH144‐FLAG added (heterotrimer); around 15 min for HIS‐NF‐YB1 alone [1]: 40 min
Molecule: HIS‐bHLH144‐FLAG (natural protein)

half-life of HIS‐NF‐YB1 in a cell-free degradation assay (total protein extract of 10 DAG rice seedlings) with GST‐NF‐YC12 added; around 15 min for HIS‐NF‐YB1 alone [2]: 30 min
B3: HIS‐NF‐YB1 (natural protein)
chain: T1 sequence

interaction intensity (ratio of colony numbers on selective and non-selective medium) [3]: 63.7%
B4: NF‐YB1‐pTRG (natural protein)
chain: T1 sequence

The remaining lines, values behind:

B1: Wx promoter probe 4 (dsDNA)
DNA 1: CAACGTGCCAACGTACGCACGCTAACGTGAGTCATGTAGCGTAATTCCAAGTTCTTTTTT
DNA 2: AAAAAAGAACTTGGAATTACGCTACATGACTCACGTTAGCGTGCGTACGTTGGCACGTTG
binding result (HIS-NF-YB1): no binding

B2: Wx promoter probe 2 (dsDNA)
DNA 1: CAGGCACTCAGCTCGCTGCTGGTCCCGCACGTCGCCACACGATCGACGTACGCACGCGAG
DNA 2: CTCGCGTGCGTACGTCGATCGTGTGGCGACGTGCGGGACCAGCAGCGAGCTGAGTGCCTG
binding result (HIS-NF-YB1): no binding

B5: Wx promoter probe 3 (dsDNA)
DNA 1: CGTAATTCCAAGTTCTTTTTTTTTTGTCAGCACGTACAAGCAGCCGCTAGCCTCGCCCTG
DNA 2: CAGGGCGAGGCTAGCGGCTGCTTGTACGTGCTGACAAAAAAAAAAGAACTTGGAATTACG
binding result (HIS-NF-YB1): no binding

B6: Wx promoter probe 5 (dsDNA)
DNA 1: AGATCATATCGTCTCCAGACTCAAGTGCACGTTGATCGTTCGCTCACTGCTTCATCGATC
DNA 2: GATCGATGAAGCAGTGAGCGAACGATCAACGTGCACTTGAGTCTGGAGACGATATGATCT
binding result (HIS-NF-YB1): no binding
